From the supplement of paper PMC12764529
± gives the half width of the 95% confidence interval.

How the values were obtained:
[1] = folding stability dG unfold (combined trypsin and chymotrypsin); higher = more stable
How it was run: (§1)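 K50 was inferred by Bayesian fitting of sequencing counts obtained after protease digestion of designed mini-proteins. Unfolding free energy was derived by comparison with a sequence-predicted unfolded-state K50 and a shared folded-state K50, for each protease or both combined. The mini-proteins were under 80 residues, had no cysteine, were carried in a PA-tagged cDNA display construct, and were kept only if AlphaFold2 dimer inter-PAE exceeded 15.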

[2] = folding stability dG unfold from chymotrypsin proteolysis; higher = more stable
How it was run: as §1

[3] = folding stability dG unfold from trypsin proteolysis; higher = more stable
How it was run: as §1

Sequence	folding stability dG unfold [1]	folding stability dG unfold [2]	folding stability dG unfold [3]
SAGGSAGGSAGGMMVNLKVTREKLPNGKYRVTFTLPNGEEVVVEVESEEEAEAAAKEIAASAGGSAGGSAGG [r11_955_JUSTAS]	3.95 ± 0.084 kcal/mol	4.23 ± 0.052 kcal/mol	3.2 ± 0.053 kcal/mol
SAGGSAGGSAGGMNPVSKVTKHSGPNGQVTETTTYFDPASGKTTVTYTDLVTGTTSTISTSAGGSAGGSAGG [r11_1063_JUSTAS]	-0.823 ± 0.17 kcal/mol	-1.02 ± 0.41 kcal/mol	-0.579 ± 0.047 kcal/mol
SAGGSAGGSAGGMPADEKVTTSPEIVTLPNGTRVVVTKSTSPDPSVSSTSVTVLPPNVPPSAGGSAGGSAGG [r11_338_JUSTAS]	1.05 ± 0.066 kcal/mol	1.38 ± 0.027 kcal/mol	0.393 ± 0.029 kcal/mol
SAGGSAGGSAGGMPIPVTITVSDPATGTTKVVKTVLVTSPEKLEEVISKLPEGKKYTVVESAGGSAGGSAGG [r7_307_JUSTAS]	-0.393 ± 0.29 kcal/mol	-0.224 ± 0.22 kcal/mol	-0.415 ± 0.098 kcal/mol
SAGGSAGGSAGGMPLTLTSETVTVERDPTSNNVVTTTTTTYKLPNGTLVTVTTTTTSPTTSAGGSAGGSAGG [r7_267_JUSTAS]	2.33 ± 0.06 kcal/mol	2.21 ± 0.034 kcal/mol	2.38 ± 0.1 kcal/mol
SAGGSAGGSAGGMPTTATITLPGGETLTVPVPVDPSTGTVSEEEIRALVGPEFEFEILGGSAGGSAGGSAGG [r7_492_JUSTAS]	1.24 ± 0.068 kcal/mol	1.49 ± 0.062 kcal/mol	0.779 ± 0.04 kcal/mol
SAGGSAGGSAGGMPVTLNVTVKTKDPDGVAATETVTLTFSSPEEALAAIKAAYPNSTIESAGGSAGGSAGGS [r10_1248_JUSTAS]	1.15 ± 0.12 kcal/mol	1.33 ± 0.061 kcal/mol	0.995 ± 0.057 kcal/mol
SAGGSAGGSAGGMRLVRITTEDGRTITAPVGETITITRPDGSKVKITRVEVFELPPEDLSAGGSAGGSAGGS [r10_20_TrROS_Hall]	1.23 ± 0.041 kcal/mol	1.51 ± 0.025 kcal/mol	0.744 ± 0.021 kcal/mol
SAGGSAGGSAGGMRRVTIWFPIPEDEEITFKLPGNGVEVEIEPDKGNGFFRITVYLPDGSAGGSAGGSAGGS [r10_1138_TrROS]	1.94 ± 0.098 kcal/mol	2.07 ± 0.12 kcal/mol	1.42 ± 0.036 kcal/mol
SAGGSAGGSAGGMTIEINGKKYEIVEVKEEKGKLTLKIKVNGKLLEIEIDKDKNEIKIYPSAGGSAGGSAGG [r7_553_TrROS_Hall]	3.91 ± 0.14 kcal/mol	4.05 ± 0.1 kcal/mol	3.44 ± 0.14 kcal/mol
SAGGSAGGSAGGMTITVVTEESPGPFKTVTVTTTTPLPNGTLATTTTTTFLPVSPDEPVSAGGSAGGSAGGS [r10_241_JUSTAS]	0.983 ± 0.08 kcal/mol	0.208 ± 0.27 kcal/mol	1.52 ± 0.044 kcal/mol
SAGGSAGGSAGGMTLEEVKKALEELGIKEENQTVTIELEDGSKVKITVKDGKVVLEVEPSAGGSAGGSAGGS [r10_604_TrROS_Hall]	2.54 ± 0.13 kcal/mol	2.19 ± 0.1 kcal/mol	2.81 ± 0.18 kcal/mol
SAGGSAGGSAGGMTLRIRVRNKDGKVLEIEVEVDEDKTPEEVARELAKKLNVEKVEIFPSAGGSAGGSAGGS [r10_400_TrROS_Hall]	2.28 ± 0.13 kcal/mol	2.32 ± 0.038 kcal/mol	2.2 ± 0.07 kcal/mol
SAGGSAGGSAGGMTPIEVTVELEEPTRRTTRRFTFTSPEEVEAYLKALPASWRVTRVELRSAGGSAGGSAGG [r17_410_JUSTAS]	1.66 ± 0.075 kcal/mol	1.82 ± 0.15 kcal/mol	1.58 ± 0.038 kcal/mol
SAGGSAGGSAGGMTTVTLTLTTELEVKDPEGKLHRETVTVTVTVPVPPSTLTDTTDLVSSAGGSAGGSAGGS [r10_168_JUSTAS]	1.91 ± 0.17 kcal/mol	2.12 ± 0.054 kcal/mol	1.82 ± 0.1 kcal/mol
SAGGSAGGSAGGMTTVTTLETRPLPDGTTVTREVVTDENGTVVSTTVSRVSPEGVVTAESAGGSAGGSAGGS [r10_1014_JUSTAS]	0.623 ± 0.055 kcal/mol	0.97 ± 0.025 kcal/mol	-0.0113 ± 0.05 kcal/mol
SAGGSAGGSAGGMVIRLEDGRTLVFETREEAEEAAKALAEELGLKEVKVEIVEVPLEELPSAGGSAGGSAGG [r7_839_TrROS_Hall]	2.4 ± 0.045 kcal/mol	2.6 ± 0.032 kcal/mol	2.11 ± 0.073 kcal/mol
SAGGSAGGSAGGMVITVPKENLKELIDALRKEGKARIVSVEEKDGLVTITVELEDEELESAGGSAGGSAGGS [r10_695_TrROS_Hall]	2.95 ± 0.11 kcal/mol	2.28 ± 0.075 kcal/mol	3.24 ± 0.18 kcal/mol
SAGGSAGGSAGGMVIVKVHLPNGNTLTFVFPGMTLDEIREELASQGGKIKEIEIVPMENSAGGSAGGSAGGS [r10_572_TrROS]	2.28 ± 0.079 kcal/mol	2.323 ± 0.02 kcal/mol	2.17 ± 0.07 kcal/mol
SAGGSAGGSAGGMVKIKLKNGKWYEAKVTEIDEDGNVVVELPNGKKFTVPAKDLEIEVLPSAGGSAGGSAGG [r7_823_TrROS_Hall]	3.69 ± 0.11 kcal/mol	3.7 ± 0.097 kcal/mol	3.77 ± 0.29 kcal/mol
SAGGSAGGSAGGMVTTLEVTVSPDGVITVTTVTTDAAGTPVTTTTTTTVLGPGGPVLAVSAGGSAGGSAGGS [r10_484_JUSTAS]	2.03 ± 0.12 kcal/mol	2 ± 0.044 kcal/mol	2.05 ± 0.13 kcal/mol
